This note sets out measurements from the RNAGym collection of RNA variant scans (doi:10.1073/pnas.2313332121).

B1: TPR 5TU (parent)
chain: GGAUCUUCUCGAUCUAACAAAAAAGACAAAUCUGCCACAAAGCUUGAGAGCAUCUUCGGAUGCAGAGGCGGCAGCCUUCGGUGGCGCGAUAGCGCCAACGUUCUCAACUAUGACACGCAAAACGCGUGCUCCGUUGAAUGGAGUUUAUCAUG

This sample holds only a part of the variants without activity.

This data set covers variants of B1. As to the kind of experiment: polymerase ribozyme fitness, log enrichment relative to wild type (log ratio); higher = more active; in vitro selection for triplet polymerase activity. The method, boiled down:
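To select mutant libraries of each subunit of a heterodimeric triplet polymerase ribozyme, built by PCR and transcribed, each was annealed with a biotinylated primer, partner subunit and triplets, then incubated frozen at −7 °C. Extended constructs were gel-excised, captured on streptavidin beads and amplified by RT-PCR, in one round carried out in triplicate. Illumina sequencing of input and output libraries kept genotypes with ≥10 input reads and ≥1 read per output. Fitness is the base-2 logarithm of genotype enrichment relative to wild-type enrichment, from inverse-variance-weighted replicate averages.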
In the case of G84C A142G, the “polymerase ribozyme fitness (log ratio)” value is -3.03. The value for C85A G126A was -1.32; that for C85A G88U C95G A97C was ≤ -4.2.

As for G84A G117U U139G U145C, the “polymerase ribozyme fitness (log ratio)” value was -0.527. Turning to G84A A97U A147U, the “polymerase ribozyme fitness (log ratio)” value came out at 0.467.

With G84U C131G, the “polymerase ribozyme fitness (log ratio)” value is -3.96. For the variant G83C A115U A120U, the “polymerase ribozyme fitness (log ratio)” value was -1.99.

With G84U U130A U145C, the “polymerase ribozyme fitness (log ratio)” value was -4.13. Turning to G83U C93U C96G U135A, the “polymerase ribozyme fitness (log ratio)” value was -2.89. Regarding C85A G94C A121C, the “polymerase ribozyme fitness (log ratio)” value is -1.84.

As for G83C G92A, the “polymerase ribozyme fitness (log ratio)” value was ≤ -4.2. The value for G83U C149U was -1.76. With G84U U101G G126C, the “polymerase ribozyme fitness (log ratio)” value was -1.67. In the case of G84U U102G, the “polymerase ribozyme fitness (log ratio)” value was -4.16. The value for G84A G100C was ≤ -4.2; that for G83U C95U C123U G143U was -3.65; that for C85A G117A A138G was -4.18. Consider G84U U104G, for which the “polymerase ribozyme fitness (log ratio)” value was -2.26. Next, G83A C85U A115U C116U: -2.68; G84A C85U G143A: -1.63.

Turning to G84A G133C G141C, the “polymerase ribozyme fitness (log ratio)” value was -2.83. Next, G83A C87U C123G A142G: -2.09. G83C U148G G152A: the “polymerase ribozyme fitness (log ratio)” value is -3.67. Take G83C U145G: the “polymerase ribozyme fitness (log ratio)” value is -0.686. As to G83C U145C, the “polymerase ribozyme fitness (log ratio)” value is -2.18.

As for G84A C99U G100U U144A, the “polymerase ribozyme fitness (log ratio)” value was -4.12. Take C85A A138G: the “polymerase ribozyme fitness (log ratio)” value was -3.24.

Consider G84A G143U, for which the “polymerase ribozyme fitness (log ratio)” value is -2.51. Take G83C C125A G136U: the “polymerase ribozyme fitness (log ratio)” value is -2.54. Take G83U U102C: the “polymerase ribozyme fitness (log ratio)” value is -1.16. Next, G84U C87A C116U: ≤ -4.2; G83A G141U G143A: ≤ -4.2.

Take G83U G126A: the “polymerase ribozyme fitness (log ratio)” value is -0.669. Next, C85A C116A: 0.744; G84U G133C: -3.53; G84A A120C C125U G136A: 0.204. C85A C96U C132A: the “polymerase ribozyme fitness (log ratio)” value was -3.67. For the variant G83C U101G A106U, the “polymerase ribozyme fitness (log ratio)” value is -3.95. The value for G84U C103U A137C was ≤ -4.2; that for G83U U151A was ≤ -4.2; that for G84U U90A C108A was ≤ -4.2.

As for C85A A107U A147C U151C, the “polymerase ribozyme fitness (log ratio)” value was ≤ -4.2. Next, G83A C85U A106C C132G G140A: ≤ -4.2.

In the case of G84A C95G G141C, the “polymerase ribozyme fitness (log ratio)” value is -0.311. Take C85A A98U C108A U134G: the “polymerase ribozyme fitness (log ratio)” value was ≤ -4.2.

For the variant C85A C114U G143A, the “polymerase ribozyme fitness (log ratio)” value is ≤ -4.2. Next, G83U G100U C103A C131U: ≤ -4.2. The value for G84A C85A G86A G92U U101C was ≤ -4.2; that for G84A C132G was -3.59; that for C85A C129G was -2.95. On to C85A A89G U146C, for which the “polymerase ribozyme fitness (log ratio)” value was -2.83.

As to C85A G124C, the “polymerase ribozyme fitness (log ratio)” value is -1.69.

Turning to C85A G124U, the “polymerase ribozyme fitness (log ratio)” value was -1.9. The value for G84C C123G U146G was -2.7; that for C85G A121G C132U was -2.88; that for G84U C93G was ≤ -4.2. The value for G84U A91G U144G was -1.53; that for G83C C105G G126A was -2.8.

Turning to C85G A106G, the “polymerase ribozyme fitness (log ratio)” value was -2.59. Consider G83U C103G A107U, for which the “polymerase ribozyme fitness (log ratio)” value was ≤ -4.2.

As to G83C C85G C103A, the “polymerase ribozyme fitness (log ratio)” value is ≤ -4.2. With G84U G92A, the “polymerase ribozyme fitness (log ratio)” value was ≤ -4.2. Next, G83U A121C A142U: -1.46. Take G83C C125U U146G: the “polymerase ribozyme fitness (log ratio)” value is -3.89. Take C85A A122G: the “polymerase ribozyme fitness (log ratio)” value was -2.54.

As to G84U A120G, the “polymerase ribozyme fitness (log ratio)” value is -2.16. For C85A C125U, the “polymerase ribozyme fitness (log ratio)” value was -1.7. For C85A C125A, the “polymerase ribozyme fitness (log ratio)” value is -2.27. In the case of G84U A98G, the “polymerase ribozyme fitness (log ratio)” value is -2.89. Turning to G84C A121U A122C, the “polymerase ribozyme fitness (log ratio)” value is -1.63.

Turning to G83C G136A, the “polymerase ribozyme fitness (log ratio)” value is -0.101. Regarding G83C G136C, the “polymerase ribozyme fitness (log ratio)” value is -4.09.

Take G83U U127A: the “polymerase ribozyme fitness (log ratio)” value is -3.18. Next, G84C G117C: -1.73; G84A A98C C105G U148C: -3.35; G84C G92C A106U C149U: ≤ -4.2. Next, G83A G88U C125A G152U: ≤ -4.2; C85G A97G A150U: -2.03; G84A A106U G141U: -0.79. Next, G84A U148C: -2.65; G84A U148A: -2.74. For G84A C118A U146C, the “polymerase ribozyme fitness (log ratio)” value is -1.34.

For the variant G84A G124A, the “polymerase ribozyme fitness (log ratio)” value was -0.287.
